The values below come from CN106957364A (UNIV SHANGHAI JIAOTONG, dated 2017).

The target of the assay is T1, hFcRn&b2M蛋白 (human, UniProt P55899 24-297; P61769 21-119, limits assumed).
T1 construct: also called hFcRn&β2M; hFcRn蛋白
The assay is described as follows: affinity measurement at pH 6.0, hFcRn&b2M as ligand, scFv as sample (method not named).

In general, Kd refers to the free concentration of one partner at which half of the binding sites on the other are occupied at equilibrium, for simple one-to-one binding.

T1 sequence (P55899 24-297 limits assumed, chain 1 of 2): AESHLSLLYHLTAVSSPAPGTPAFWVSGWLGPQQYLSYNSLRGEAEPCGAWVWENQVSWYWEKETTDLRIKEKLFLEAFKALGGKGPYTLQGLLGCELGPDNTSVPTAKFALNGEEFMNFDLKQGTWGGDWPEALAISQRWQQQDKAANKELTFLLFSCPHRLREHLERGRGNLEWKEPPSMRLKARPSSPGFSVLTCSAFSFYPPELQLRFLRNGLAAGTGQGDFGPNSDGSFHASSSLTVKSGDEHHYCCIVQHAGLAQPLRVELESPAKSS
T1 sequence (P61769 21-119 limits assumed, chain 2 of 2): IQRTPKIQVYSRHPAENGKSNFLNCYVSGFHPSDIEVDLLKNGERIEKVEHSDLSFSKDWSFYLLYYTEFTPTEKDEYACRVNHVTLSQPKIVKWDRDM

B1: 单链抗体FnAb12 (scFv)
scFv: DIQLTQSPSSLSASVGDRVTLTCQATQDIDNNLNWYQQKPGKAPKLLIYDASNLETGVPSRFSGSGSGTDFTFTISDLQPEDVATYYCQQYYNLPLTFGGGTKVDIKRSRGGGGSGGGGSGGGGSLEMAEVQLVQSGAEVKKPGASVKVSCKASGYTFTSYDINWVRQATGQGLEWMGWMNPNSGNTGYAQKFQGRVTMTRNTSISTAYMELSSLRSEDTAVYYCARGVDLGDGWGQGTLVTVSS
notes: Single-chain antibody from a phage library; also called FnAb12抗体; 单克隆抗体FnAb12
The molecule B1 returned a Kd of 15 nM.
